# Assay results: patent publication US20060286066A1 (published 2006)
# Changes are numbered by the printed parent chain.
# T1: Biotinylated human TNFRI (human, UniProt P19438 30-211, limits assumed, biotinylated (approx 1 biotin per molecule))
# T1 sequence (looked up): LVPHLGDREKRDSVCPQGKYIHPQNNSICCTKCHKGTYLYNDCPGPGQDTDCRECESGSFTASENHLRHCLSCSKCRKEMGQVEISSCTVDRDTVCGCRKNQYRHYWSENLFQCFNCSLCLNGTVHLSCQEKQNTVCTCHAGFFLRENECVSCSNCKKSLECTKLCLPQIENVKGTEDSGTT
# T2: TNF receptor 1 Fc fusion protein (R&D Systems) (human, UniProt P19438 30-211, limits assumed)
# T2 construct: also called recombinant TNF receptor 1 (p55); not shown: Fc part of the bought fusion protein, captured by an anti-human Fc antibody
# T2 sequence (looked up): T1 sequence (looked up)
# B1: TAR210-27 2 × 20K MAL PEG (other)
# VH: ASTEVQLLESGGGLVQPGGSLRLSCAASGFTFEWYWMGWVRQAPGKGLEWVSAISGSGGSTYYADSVKGRFTISRDNSKNTLYLQMNSLRAEDAAVYYCAKVKLGGGPNFGYRGQGTLVTVSC
# modifications: 2 × 20K (40K branched) MAL-PEG on the C-terminal Cys (Ser120cys)
# notes: For the limits of the entry see m36; also called 40K PEGylated monomer (TAR2-10-27)
# B2: TAR210-27 20K MAL PEG (other)
# VH: B1 VH
# modifications: 20K MAL-PEG on the C-terminal Cys (Ser120cys)
# notes: For the limits of the entry see m36
# B3: TAR210-27 5K MAL PEG (other)
# VH: B1 VH
# modifications: 5K MAL-PEG on the C-terminal Cys (Ser120cys)
# notes: as for B2
# B4: TAR2-10-27 Ser120cys blocked (other)
# VH: B1 VH
# modifications: C-terminal Cys (Ser120cys) blocked with N-ethylmaleimide
# notes: TAR2-10-27 cys; the entry already carries Ser120cys
# B5: TAR210-27 2 × 10K MAL PEG (other)
# VH: B1 VH
# modifications: 2 × 10K MAL-PEG on the C-terminal Cys (Ser120cys)
# notes: as for B2
# B6: TAR2-10-27 Ser120cys 30K MAL PEG (other)
# VH: B1 VH
# modifications: 30K MAL-PEG on the C-terminal Cys (Ser120cys)
# notes: TAR2-10-27 cys; For the limits of the entry see m36; also called TAR210-27 30K MAL PEG
# B7: TAR2-10-27 Asp62cys blocked (other)
# VH: B1 VH with D65C, C123S
# modifications: Cys62 blocked with N-ethylmaleimide
# notes: For numbering and entry offset see m28
# B8: TAR2-10-27 Gln112cys blocked (other)
# VH: B1 VH with Q115C, C123S
# modifications: Cys112 blocked with N-ethylmaleimide
# notes: as for B7
# B9: TAR2-10-27 Glu89cys 30K MAL PEG (other)
# VH: B1 VH with E92C, C123S
# modifications: 30K MAL-PEG on Cys89
# notes: as for B7
# B10: TAR2-10-27 Pro41cys blocked (other)
# VH: B1 VH with P44C, C123S
# modifications: Cys41 blocked with N-ethylmaleimide
# notes: as for B7
# B11: TAR2-10-27 Gln13cys blocked (other)
# VH: B1 VH with Q16C, C123S
# modifications: Cys13 blocked with N-ethylmaleimide
# notes: as for B7
# B12: TAR2-10-27 Thr117cys 30K MAL PEG (other)
# VH: B1 VH with T120C, C123S
# modifications: 30K MAL-PEG on Cys117
# notes: as for B7
# B13: TAR2-10-27 Glu89cys blocked (other)
# VH: B1 VH with E92C, C123S
# modifications: Cys89 blocked with N-ethylmaleimide
# notes: as for B7
# B14: TAR2-10-27 Pro41cys 30K MAL PEG (other)
# VH: B1 VH with P44C, C123S
# modifications: 30K MAL-PEG on Cys41
# notes: as for B7
# B15: TAR2-10-27 Gln13cys 30K MAL PEG (other)
# VH: B1 VH with Q16C, C123S
# modifications: 30K MAL-PEG on Cys13
# notes: as for B7
# B16: TAR2-10-27 Leu115cys blocked (other)
# VH: B1 VH with L118C, C123S
# modifications: Cys115 blocked with N-ethylmaleimide
# notes: as for B7
# B17: TAR2-10-27 Gln112cys 30K MAL PEG (other)
# VH: B1 VH with Q115C, C123S
# modifications: 30K MAL-PEG on Cys112
# notes: as for B7
# B18: TAR2-10-27 Leu115cys 30K MAL PEG (other)
# VH: B1 VH with L118C, C123S
# modifications: 30K MAL-PEG on Cys115
# notes: as for B7
# B19: TAR2-10-27 Thr117cys blocked (other)
# VH: B1 VH with T120C, C123S
# modifications: Cys117 blocked with N-ethylmaleimide
# notes: as for B7
# B20: HEL4 PEGylated with SPA-PEG (other)
# VH: EVQLLESGGGLVQPGGSLRLSCAASGFRISDEDMGWVRQAPGKGLEWVSSIYGPSGSTYYADSVKGRFTISRDNSKNTLYLQMNSLRAEDTAVYYCASALEPLSEPLGFWGQGTLVTVSS
# modifications: SPA-PEG on surface lysine residues (sites not given)
# notes: also called PEGylated HEL4
# B21: HEL4 PEGylated with NHS-PEG (other)
# VH: B20 VH
# modifications: NHS-PEG on surface lysine residues (sites not given)
# notes: also called PEGylated HEL4; HEL4 40K PEG-NHS
# B22: TAR2-10-27 Asp62cys 30K MAL PEG (protein)
# VH: B1 VH with D65C, C123S
# modifications: 30K MAL-PEG on Cys62
# Molecular target: T1, Biotinylated human TNFRI
# Test: SPR (Biacore), biotinylated human TNFRI on streptavidin chip, dAb injected; KD from mean kd/ka
# Text: (§1) The effect of PEGylation on the binding affinity of TAR2-10-27 for its antigen was investigated using Biacore. All the PEGylated formats were generated using TAR2-10-27cys (see Example 2). The following methodology was used to determine the on and off rates of each PEGylated dAb format for the antigen. Biotinylated human TNFRI (approx 1 biotin per molecule) was coated onto a single flow cell of a Biacore streptavidin sensor chip at a density of approximately 400 RU. A concentration series of each dAb or PEGylated dAb (2.6 μM, 770 nM, 260 nM, 77 nM and 2.6 nM) was sequentially injected (45 μl injection at a flow rate of 30 μl/min) over both the TNFRI coated flow cell and an uncoated flow cell (streptavidin), (a subtractive curve was generated by subtracting the uncoated flow cell curve from the TNFRI flow cell curve). The off-rate was analysed for five minutes after the injection of each sample after which the surface was regenerated by injection of 10 mM glycine pH 3.
# (§2) Data generated from the Biacore was fitted using the curve fitting software (Biaevaluation 3.2) and the association constant (kₐ) and dissociation constant (kd) determined (Table 8).
row,Kd [µM],Binder
1,0.0692,B1
2,0.15,B2
3,0.122,B3
4,0.0103,B4
5,0.0795,B5
6,0.0922,B6

# Molecular target: T2, TNF receptor 1 Fc fusion protein (R&D …)
# Test: DOM1 receptor binding assay (RBA): dAb titrated against TNF binding to TNF receptor 1
# Protocol: Assays for the measurement of receptor binding by a ligand, e.g., a cytokine, are known in the art. […] Briefly, Maxisorp plates are incubated overnight with […] anti-human Fc mouse monoclonal antibody (Zymed, San Francisco, USA). […] The plate is washed to remove any unbound protein before the detection step. […] The reaction is stopped by the addition of HCl and the absorbance is read at 450 nm.
row,IC50 [µM],Binder
1,0.015,B7
2,0.002,B8
3,0.02,B9
4,0.001,B10
5,0.002,B11
6,0.008,B12
7,0.003,B4
8,0.003,B13
9,0.008,B14
10,0.01,B6
11,0.008,B15
12,0.003,B16
13,0.015,B17
14,0.01,B18
15,0.003,B19

# Molecular target: hen egg white lysozyme (hen, UniProt P00698 19-147)
# Test: batch binding to lysozyme-Sepharose affinity resin, SDS-PAGE read-out
# Protocol: A HEL4 affinity based resin (based on the antigen, hen egg white lysozyme) was produced to test the functionality of the PEGylated dAb. Lysozyme was coupled to NETS activated Sepharose 4B resin (Amersham Pharmacia) following the manufacturer's instructions. The PEGylated samples (5 μg) were then mixed with the affinity resin (100 μl) and allowed to bind in PBS at room temperature for 30 mins. The resin was then extensively washed with PBS (3×1 ml) to remove unbound protein. The affinity resin was then run on a SDS-PAGE to determine if the PEGylated HEL4 had bound to the matrix (see Section 8.3).
# Chain of hen egg white lysozyme (P00698 19-147 limits assumed): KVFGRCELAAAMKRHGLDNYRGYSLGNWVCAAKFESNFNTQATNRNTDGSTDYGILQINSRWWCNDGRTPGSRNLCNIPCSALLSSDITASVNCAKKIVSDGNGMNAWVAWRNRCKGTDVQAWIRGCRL
row,binding result,Binder
1,binds,B20
2,binds,B21

# Molecular target: T1, Biotinylated human TNFRI
# Test: SPR (Biacore), biotinylated human TNFRI on streptavidin chip, dAb injected
# Text: as §1, §2
koff [s⁻¹],kon [M⁻¹ s⁻¹],Binder
0.00517,74700,B1
0.012,79900,B2
0.011,90000,B3
0.00596,577000,B4
0.00954,120000,B5
0.00769,83400,B6

# Molecular target: p55 TNF-α receptor on MRC-5 cells (human) (UniProt P19438)
# Test: cell-based or functional assay
# Chain of p55 TNF-α receptor on MRC-5 cells (human) (P19438 30-455): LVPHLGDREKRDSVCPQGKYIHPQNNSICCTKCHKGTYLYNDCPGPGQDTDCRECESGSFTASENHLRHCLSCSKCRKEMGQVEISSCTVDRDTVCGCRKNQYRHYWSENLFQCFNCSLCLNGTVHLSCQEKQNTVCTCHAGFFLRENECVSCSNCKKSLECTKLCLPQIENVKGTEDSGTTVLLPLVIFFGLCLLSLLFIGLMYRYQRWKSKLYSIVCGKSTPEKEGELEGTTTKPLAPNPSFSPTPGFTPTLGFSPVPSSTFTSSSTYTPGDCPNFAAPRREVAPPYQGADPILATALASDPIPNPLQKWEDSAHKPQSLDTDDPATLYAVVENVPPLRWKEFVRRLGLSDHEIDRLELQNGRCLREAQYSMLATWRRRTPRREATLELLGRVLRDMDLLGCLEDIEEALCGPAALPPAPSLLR
row,MRC5 cell assay ND 50 [nM],Binder
1,430,B7
2,1000,B22
3,15,B8
4,100,B9
5,45,B10
6,30,B11
7,700,B12
8,30,B4
9,70,B13
10,200,B14
11,600,B6
12,200,B15
13,30,B16
14,650,B17
15,300,B18
16,30,B19

# Molecular target: T2, TNF receptor 1 Fc fusion protein (R&D …)
# Test: TNF receptor binding assay: dAb titrated against TNF binding to TNF receptor 1
row,IC50 [µM],Binder
1,~0.02,B1
